One molecule from publication PMC3947560 can be followed below.

The target in the series is ETV1 (ER81) 249-477 (UniProt P50549 249-477). As to the kind of experiment: EMSA.
ETV1 (ER81) 249-477, sequence (P50549 249-477): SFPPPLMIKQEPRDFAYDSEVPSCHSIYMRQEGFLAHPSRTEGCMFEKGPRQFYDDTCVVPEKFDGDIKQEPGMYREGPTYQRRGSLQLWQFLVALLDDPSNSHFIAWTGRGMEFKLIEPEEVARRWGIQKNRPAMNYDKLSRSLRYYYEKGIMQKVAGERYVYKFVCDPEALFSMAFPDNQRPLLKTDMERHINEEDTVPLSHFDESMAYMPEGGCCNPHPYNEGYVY

B1: ETS8/9 (PSA enhancer) (dsDNA)
DNA 1: CTTTACAAACATCCTTGAAACAACAATCCAGAA
DNA 2: TTCTGGATTGTTGTTTCAAGGATGTTTGTAA
Take B1: the binding result is “binds”.
